Consider 3 molecules from publication PMC5141385, “Small heat shock proteins sequester misfolding proteins in near-native conformation for cellular protection and efficient refolding” (Nature Communications, 2016).

The chains are these.
B2: His6-MDH (malate dehydrogenase) (enzyme)
chain: AKVAVLGASGGIGQPLSLLLKNSPLVSRLTLYDIAHTPGVAADLSHIETRATVKGYLGPEQLPDCLKGCDVVVIPAGVPRKPGMTRDDLFNTNATIVATLTAACAQHCPDAMICIISNPVNSTIPITAEVFKKHGVYNPNKIFGVTTLDIVRANAFVAELKGLDPARVSVPVIGGHAGKTIIPLISQCTPKVDFPQDQLSTLTGRIQEAGTEVVKAKAGAGSATLSMAYAGARFVFSLVDAMNGKEGVVECSFVKSQETDCPYFSTPLLLGKKGIEKNLGIGKISPFEEKMIAEAIPELKASIKKGEEFVKNMK
notes: malate dehydrogenase (MDH), thermolabile model substrate; The aggregation, centrifugation and SEC methods say only 'MDH'; also called His6-tagged MDH; source: E. coli (derivative of MC4100), purified (Ni-IDA)
B3: MDH labelled with 7-diethylcoumarin-3-carboxylic acid (enzyme, UniProt P00346 25-338, looked up)
chain: AKVAVLGASGGIGQPLSLLLKNSPLVSRLTLYDIAHTPGVAADLSHIETRATVKGYLGPEQLPDCLKGCDVVVIPAGVPRKPGMTRDDLFNTNATIVATLTAACAQHCPDAMICIISNPVNSTIPITAEVFKKHGVYNPNKIFGVTTLDIVRANAFVAELKGLDPARVSVPVIGGHAGKTIIPLISQCTPKVDFPQDQLSTLTGRIQEAGTEVVKAKAGAGSATLSMAYAGARFVFSLVDAMNGKEGVVECSFVKSQETDCPYFSTPLLLGKKGIEKNLGIGKISPFEEKMIAEAIPELKASIKKGEEFVKNMK
modifications: 7-diethylcoumarin-3-carboxylic acid (succinimidyl ester labelling, sites not stated)
notes: malate dehydrogenase (MDH) purchased from Roche; also called labelled MDH; MDH (Roche); source: bought: Roche; labelled with 7-diethylcoumarin-3-carboxylic acid succinimidyl ester

Holding throughout (details): both partners purified
In experiment [1] the target is B2. Description: co-sedimentation; MDH (0.5 μM) denatured 60 min at 41 °C in buffer C with or without sHsps (0.1–2.5 μM); 10–50% glycerol gradient, 40,000 r.p.m., 1 h, 4 °C, and supernatant-pellet centrifugation; fractions by SDS-PAGE and western blot. A general note: Immunoblotting shows a protein as a band on a membrane.
For experiment [2], the target named is B3. Description: FRET or BRET; MDH–YFP and coumarin-labelled MDH (each 0.25 μM) mixed in preheated buffer C at 47 °C (heat-induced co-aggregation); signal at 527 nm; with or without Hsp26 or Hsp42. For orientation: Bioluminescence resonance energy transfer reports proximity on the nanometre scale.
Experiment [3] concerns the target T1, Hsp42 (S. cerevisiae, UniProt Q12329 1-375).
T1 construct: Hsp42, small heat shock protein of S. cerevisiae; Cloned into pMal-c2E; the enterokinase site was changed to a PreScission site, so residues of that site may remain at the N-terminus; also called sHsp; small heat shock protein Hsp42; source: E. coli ArcticExpress, purified (amylose resin, PreScission cleavage, Sephacryl S-300); not shown: MBP, N-terminal, cleaved
Description: cross-linking; DSS cross-linking of Hsp42/MDH complexes; MDH cross-link pattern by western blot.

For experiment [4], the target named is T1, Hsp42. Description: FRET or BRET; MDH–YFP and coumarin-labelled MDH (each 0.25 μM) mixed in preheated buffer C at 47 °C (heat-induced co-aggregation); signal at 527 nm; with or without Hsp26 or Hsp42.

T1 sequence (Q12329 whole entry): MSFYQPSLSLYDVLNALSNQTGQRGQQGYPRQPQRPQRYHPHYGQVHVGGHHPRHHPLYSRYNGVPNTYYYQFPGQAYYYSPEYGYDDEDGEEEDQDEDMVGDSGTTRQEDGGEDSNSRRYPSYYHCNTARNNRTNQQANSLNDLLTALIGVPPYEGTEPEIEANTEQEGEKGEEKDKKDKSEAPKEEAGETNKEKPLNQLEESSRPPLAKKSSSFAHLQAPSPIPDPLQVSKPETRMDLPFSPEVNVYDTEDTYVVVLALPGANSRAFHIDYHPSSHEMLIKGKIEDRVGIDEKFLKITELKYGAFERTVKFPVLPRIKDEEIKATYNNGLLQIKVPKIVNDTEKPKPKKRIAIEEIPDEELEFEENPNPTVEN

B1: Hsp26 (natural protein, S. cerevisiae, UniProt P15992 1-214, looked up)
chain: MSFNSPFFDFFDNINNEVDAFNRLLGEGGLRGYAPRRQLANTPAKDSTGKEVARPNNYAGALYDPRDETLDDWFDNDLSLFPSGFGFPRSVAVPVDILDHDNNYELKVVVPGVKSKKDIDIEYHQNKNQILVSGEIPSTLNEESKDKVKVKESSSGKFKRVITLPDYPGVDADNIKADYANGVLTLTVPKLKPQKDGKNHVKKIEVSSQESWGN
notes: Hsp26, small heat shock protein of S. cerevisiae; also called sHsp; small heat shock protein Hsp26; source: E. coli (derivative of MC4100), solubilised from the pellet in 8 M urea, purified (Ni-IDA, Sephacryl S-300); not shown: His6-Smt3, N-terminal, cleaved
As for B1, the binding result in experiment [1] and in experiment [2] was “binds” in each case. In the case of B2, the binding result in the experiment with Hsp42 [3] is given as “binds”. As for B3, in the experiment with Hsp42 [4], the binding result is “binds”.
